These results are taken from the RNAGym collection of RNA variant scans (doi:10.7554/elife.80360).

B1: CPEB3 Ribozyme (parent)
chain: GGGGGCCACAGCAGAAGCGUUCACGUCGCGGCCCCUGUCAGAUUCUGGUGAAUCUGCGAAUUCUGCUGU

This data set covers variants of B1. Briefly: self-cleavage, relative activity (ratio to wild type); higher = more cleavage; co-transcriptional.
With A8C U20C, the self-cleavage was determined as 0.166.
On to A8C U20A, for which the self-cleavage came to 0.114.
Regarding C7G C9G, the self-cleavage was found to be 0.966.
To C7G C9A belongs 0.898.
On to C7G G28U, for which the self-cleavage came to 0.0797.
The value for C7G C34G was 0.0956; that for C7G C34A was 0.109.
As to C7G C34U, the self-cleavage amounted to 0.325.
Turning to A8C A40G, the self-cleavage was found to be 0.958.
To A8C A40U belongs 0.868.
With C7G G41U, the self-cleavage was determined as 0.121.
For C7U C18A, the self-cleavage was determined as 0.165.
For the variant C7U C18U, the self-cleavage is 0.702.
As to C7G A51C, the self-cleavage amounted to 0.306.
In the case of C7G A51U, the self-cleavage turned out to be 0.34.
The value for C7G A51G was 0.455; that for A8C C54U was 1; that for A8C C54G was 0.876.
To C7G U36G belongs 0.147.
To C7G U36C belongs 0.0551.
On to C7U A10G, for which the self-cleavage stood at 0.947.
As for C7U A10U, the self-cleavage came to 0.981.
As for C7U A10C, the self-cleavage was 0.994.
As to C7G G17A, the self-cleavage came out at 0.11.
In the case of C7G A52C, the self-cleavage worked out at 0.42.
In the case of C7G A52U, the self-cleavage was 0.301.
As for C7G U20G, the self-cleavage stood at 0.
To C7G U20A belongs 0.163; to C7G U20C, 0.143; to C7U C34A, 0.521.
Turning to C7U G31U, the self-cleavage was found to be 0.365.
In the case of C7U G31C, the self-cleavage worked out at 0.222.
On to A8C C57U, for which the self-cleavage worked out at 0.357.
The value for A8C C57A was 0.352; that for A8C C57G was 0.446.
C7G U21C: the self-cleavage was determined as 0.173.
For C7U U26C, the self-cleavage stood at 1.01.
For C7G C35U, the self-cleavage amounted to 0.248.
To C7G C35G belongs 0.0899; to A8C C29A, 0.532; to C7G G19U, 0.0728.
As for C7G G19A, the self-cleavage was found to be 0.0606.
As for A8C G48C, the self-cleavage was determined as 1.02.
Regarding A8C G48U, the self-cleavage was 1.02.
C7U A51U: the self-cleavage is 0.976.
Turning to C7U A51C, the self-cleavage was 0.966.
The value for C7U A51G was 0.984; that for A8C G11U was 0.768.
The value for A8C G11C was 0.779.
For A8C G11A, the self-cleavage came out at 0.923.
C7U C54U: the self-cleavage turned out to be 0.967.
Take C7U C54A: the self-cleavage stood at 0.831.
Consider C7U A60U, for which the self-cleavage came out at 0.244.
With C7U A60G, the self-cleavage was determined as 0.789.
Consider C7U U46C, for which the self-cleavage was 0.973.
Take A8C A60G: the self-cleavage was 0.953.
Consider A8C A60C, for which the self-cleavage came out at 0.382.
To A8C A60U belongs 0.413.
To C7U G65U belongs 0.612.
For C7U G65A, the self-cleavage is 0.781.
Take C7U G65C: the self-cleavage worked out at 0.604.
A8C G14A: the self-cleavage is 0.669.
For the variant A8C G14C, the self-cleavage is 0.528.
Regarding C7U U64C, the self-cleavage turned out to be 0.794.
With C7U U64A, the self-cleavage came out at 0.908.
As to C7G U55C, the self-cleavage is 0.185.
On to C7G U55A, for which the self-cleavage amounted to 0.124.
As for C7G U55G, the self-cleavage was determined as 0.119.
Consider A8C A13C, for which the self-cleavage was 0.927.
Regarding A8C C27A, the self-cleavage was 0.555.
For A8C C27G, the self-cleavage is 0.112.
To C7U U69G belongs 1.03.
On to C7U U69C, for which the self-cleavage is 1.06.
For C7U U69A, the self-cleavage was determined as 1.02.
With A8C C33G, the self-cleavage came out at 0.527.
As for A8C C33A, the self-cleavage is 0.897.
Regarding C7U U20C, the self-cleavage turned out to be 0.158.
With C7U U20A, the self-cleavage came to 0.112.
The value for C7U U62A was 0.638.
For the variant C7U U62G, the self-cleavage turned out to be 0.595.
With C7U U62C, the self-cleavage came out at 0.725.
To C7G U26C belongs 0.247.
To C7G C22U belongs 0.128; to A8C C12U, 0.981.
For A8C C12G, the self-cleavage worked out at 0.798.
Turning to C7U G37U, the self-cleavage came out at 0.214.
On to A8C A52G, for which the self-cleavage came to 0.974.
To A8C A52C belongs 0.941; to C7U C22G, 0.117; to C7U C22A, 0.103.
With A8C C18U, the self-cleavage amounted to 0.88.
On to A8C C18G, for which the self-cleavage was found to be 0.186.
The value for C7G U46C was 0.38; that for C7G U46A was 0.453.
Turning to C7G U53C, the self-cleavage is 0.217.
Consider C7G U53A, for which the self-cleavage stood at 0.219.
To C7G U53G belongs 0.147.
With C7G G11A, the self-cleavage was determined as 0.281.
A8C C32G: the self-cleavage was found to be 0.227.
The value for A8C C32U was 0.954; that for C7G G56C was 0.211; that for C7G G56A was 0.333.
Regarding C7G U61A, the self-cleavage came to 0.159.
For C7G U61G, the self-cleavage came out at 0.172.
On to C7G U61C, for which the self-cleavage was determined as 0.175.
C7U A16U: the self-cleavage worked out at 0.617.
The value for C7U A16C was 0.145; that for C7U A8G was 0.918.
Take C7U A8C: the self-cleavage came out at 0.954.
Turning to C7U A8U, the self-cleavage is 0.945.
For the variant C7U C63U, the self-cleavage came out at 0.948.
Consider C7U C63A, for which the self-cleavage was determined as 0.577.
To A8C G65A belongs 0.928.
Turning to A8C G65U, the self-cleavage turned out to be 0.676.
Turning to C7U G17A, the self-cleavage is 0.175.
With C7U G17C, the self-cleavage is 0.122.
With C7U G17U, the self-cleavage is 0.243.
With C7U C57U, the self-cleavage is 0.305.
With C7U C57A, the self-cleavage was 0.35.
The value for C7U U61A was 0.805; that for C7U U61C was 0.492; that for C7U U44C was 0.829.
For the variant C7G U49G, the self-cleavage was found to be 0.469.
C7G G25C: the self-cleavage was found to be 0.0905.
On to C7G G25U, for which the self-cleavage turned out to be 0.0759.
Take C7U U36C: the self-cleavage stood at 0.806.
In the case of C7U U36G, the self-cleavage is 0.166.
For the variant C7U U36A, the self-cleavage worked out at 0.194.
On to C7U U49G, for which the self-cleavage is 0.993.
As to C7U U49C, the self-cleavage was determined as 0.854.
Take C7U U43C: the self-cleavage turned out to be 0.967.
In the case of C7U U43A, the self-cleavage was found to be 0.828.
Turning to C7G G47A, the self-cleavage was found to be 0.452.
C7U A52C: the self-cleavage was 0.914.
The value for C7G C27U was 0.0215.
For C7G C27G, the self-cleavage is 0.112.
As for A8C C35U, the self-cleavage stood at 0.976.
Take A8C C35G: the self-cleavage came to 0.421.
On to C7U G50C, for which the self-cleavage stood at 0.965.
Consider C7U G50U, for which the self-cleavage stood at 0.96.
Turning to A8C C24U, the self-cleavage turned out to be 0.753.
As for A8C C24G, the self-cleavage was determined as 0.488.
On to A8C G31U, for which the self-cleavage turned out to be 0.664.
Consider A8C G31C, for which the self-cleavage was 0.267.
Take C7G U43G: the self-cleavage was determined as 0.29.
The value for C7G U43A was 0.274; that for A8C G25C was 0.113; that for A8C G25A was 0.148.
As for A8C G28U, the self-cleavage is 0.154.
To A8C G28C belongs 0.122.
The value for C7G G68A was 0.824; that for C7G G68U was 0.808; that for A8C G58A was 0.944.
C7G A42C: the self-cleavage is 0.198.
C7G A42G: the self-cleavage came to 0.306.
In the case of C7U U21G, the self-cleavage worked out at 0.34.
Take C7U U21A: the self-cleavage amounted to 0.967.
To A8C A15U belongs 0.873; to A8C A15C, 0.726; to C7G C57G, 0.189.
To C7G C57U belongs 0.158; to C7U C27G, 0.159; to C7U C27U, 0.247.
For C7U C27A, the self-cleavage was determined as 0.289.
On to C7G C33G, for which the self-cleavage is 0.146.
On to C7G C33A, for which the self-cleavage came to 0.147.
Consider C7G C39G, for which the self-cleavage is 0.236.
